Experimental data taken from US20200087416A1.
pKd: −log10 of the molar value. Each block holds one substance with its values, some of them ahead of it.

Assays:
[1] = biological target: cynomolgus PCSK-9 (cynomolgus); experiment: BLI (ForteBio), IgG on AHQ sensor, 100 nM antigen
[2] = biological target: human PCSK9 (PCSK9 antigen, SEQ ID NO. 53) (human); experiment: MSD-SET, Fab with biotin-PCSK9 in solution, IgG on plate, pH 6.0
[3] = biological target: human PCSK9 (PCSK9 antigen, SEQ ID NO. 53) (human); experiment: MSD-SET, Fab with biotin-PCSK9 in solution, IgG on plate, pH 7.4
[4] = biological target: cynomolgus PCSK-9 (cynomolgus); experiment: as above
murine PCSK-9 (murine) = murine PCSK-9 (murine) (UniProt Q80W65); experiment: as above
[5] = biological target: human PCSK9 (PCSK9 antigen, SEQ ID NO. 53) (human); experiment: flow cytometry, PCSK9 left on CHO-LDLR cells (anti-His-FITC) after premix with 1000 nM control IgG
[6] = biological target: human PCSK9 (PCSK9 antigen, SEQ ID NO. 53) (human); experiment: flow cytometry, PCSK9 left on CHO-LDLR cells (anti-His-FITC) after premix with 0.1 nM control IgG
[7] = biological target: human PCSK9 (PCSK9 antigen, SEQ ID NO. 53) (human); experiment: cell-based or functional assay
[8] = biological target: human PCSK9 (PCSK9 antigen, SEQ ID NO. 53) (human); experiment: flow cytometry, PCSK9 left on CHO-LDLR cells (anti-His-FITC) after premix with 100 nM control IgG
[9] = biological target: human PCSK9 (PCSK9 antigen, SEQ ID NO. 53) (human); experiment: flow cytometry, PCSK9 left on CHO-LDLR cells (anti-His-FITC) after premix with 10 nM control IgG
[10] = biological target: human PCSK9 (PCSK9 antigen, SEQ ID NO. 53) (human); experiment: flow cytometry, PCSK9 left on CHO-LDLR cells (anti-His-FITC) after premix with 1 nM control IgG

- pKd [1]: 9.42
Substance: Alirocumab (antibody)

- pKd [2]: 10.29
- pKd [3]: 10.14
- pKd [4]: 10.09
- pKd (murine PCSK-9 (murine)): 9.52
Substance: Alirocumab Fab

- pKd [1]: 9.32
Substance: Bococizumab (antibody)

- pKd [1]: 8.89
Substance: Evolocumab (antibody)

- pKd [3]: 10.80
- pKd [4]: 11.09
Substance: Evolocumab Fab

- Fluorescence Signal Value [5]: 8920
- Fluorescence Signal Value [6]: 7000
- BODIPY-LDL uptake by HepG2 cells, fluorescence, 4.2 nM, replicate 1 [7]: 0.358
- BODIPY-LDL uptake by HepG2 cells, fluorescence, 4.2 nM, replicate 2 [7]: 0.325
- BODIPY-LDL uptake by HepG2 cells, fluorescence, 16.8 nM, replicate 1 [7]: 0.297
- BODIPY-LDL uptake by HepG2 cells, fluorescence, 16.8 nM, replicate 2 [7]: 0.309
- BODIPY-LDL uptake by HepG2 cells, fluorescence, 66.7 nM, replicate 1 [7]: 0.329
- BODIPY-LDL uptake by HepG2 cells, fluorescence, 66.7 nM, replicate 2 [7]: 0.288
- Fluorescence Signal Value [8]: 7520
- Fluorescence Signal Value [9]: 6960
- Fluorescence Signal Value [10]: 6730
Substance: IgG (negative control) (antibody)
